Measured values as given in the supplement of paper PMC10201428.
± gives the standard deviation of the averaged measurements.

Assays:
[1] = system: VchCAST RNA-guided transposition machinery (E. coli BL21(DE3) host, lacZ target); assay: relative integration efficiency (T-LR orientation) vs wild-type transposon end (log2 (normalized fold change)); transposon end mutated: right end (5 bp flank + 75 bp right end); higher = more efficient transposition
Summary of the method: (§1)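 Relative integration efficiency is a fold change of output over input barcode abundance, normalised to reference barcodes and log-transformed. Input plasmids and genomic integration junctions were PCR-amplified and Illumina-sequenced from E. coli BL21(DE3) co-transformed with a T7-driven effector plasmid and pUC57 donor pools of 1549 left-end or 1849 right-end transposon variants. Plating was done with 0.1 mM IPTG at 37°C for 18 h, with two biological output replicates and four reference barcodes.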

[2] = system: VchCAST RNA-guided transposition machinery (E. coli BL21(DE3) host, lacZ target); assay: relative integration efficiency (T-RL orientation) vs wild-type transposon end (log2 (normalized fold change)); transposon end mutated: right end (5 bp flank + 75 bp right end); higher = more efficient transposition
Summary of the method: as §1

| Sequence | relative integration efficiency (log2) [1] | relative integration efficiency (log2) [2] |
| --- | --- | --- |
| ACATTTGTTGATACACCCATAAATTGATATTGCCACCCATAAATTGATAATTATCACAACCATAAAATGATAATTACTCTGATCATAGTCAGACCAACATTGCTACGACCCGTATTCGCACCGACAC | -0.453 ± 0.047 | -0.382 ± 0.087 |
| ACATTTGTTGATACAACCATAAAAGGATAATTACACCCATCAATTGATAATTATCCCACCCAATTTAACTATAACGCTCTGATCATAGTCAGACCAACATTGCTACGACCCGTATTCGCACCGACAC | 0.901 ± 0.1 | -1.89 ± 0.25 |
| ACATTTGTTGATACACCCATAAATTGATATTGCCAACCATATATTGATATCTCTCAGTGGGTATTTAACTATAACGCTCTGATCATAGTCAGACCAACATTGCTACGACCCGTATTCGCACCGACAC | 2.26 ± 0.088 | -1.7 ± 0.32 |
| ACATTAGTCGATACAACCATAAAATGATAATTACACCCATAAATGGATAATTATCACACCCAATTTAACTATAACGCTCTGATCATAGTCAGACCAACATTGCTACGACCCGTATTCGCACCGACAC | -5.29 ± 1.4 | -6.76 ± 0.26 |
| ACATTTGTTGATACCACCATAAAATGGTAATTACACCCCTACATTGATAATTATCACACCCAATTTAACTATAACGCTCTGATCATAGTCAGACCAACATTGCTACGACCCGTATTCGCACCGACAC | -0.988 ± 0.042 | -4.23 ± 0.31 |
| ACATTTGTTGATACAACCATAAAATGATAATTACACCCATAAATTGATATTGCTCACAACCATAAAATGATAATTACTCTGATCATAGTCAGACCAACATTGCTACGACCCGTATTCGCACCGACAC | 0.106 ± 0.059 | -0.532 ± 0.27 |
| ACATTTGTTGATACAACCATAAAATGATAATTAATAATTATTTATAATCAGCAACTTAACCACCACCCATAAATTGATAATTATCACACCCATAAATTGATATTGCCTCTGATCATAGTCAGACCAA | -0.482 ± 0.91 | -3.5 ± 0.74 |
| ACATTTGTTGATACAACCATAAAATGATAATTACACCCATAAATTGATAATTATCACACCCATAAATTTCGCGGTAAGAGGATCATAGTCAGACCAACATTGCTACGACCCGTATTCGCACCGACAC | 2.22 ± 0.05 | -0.719 ± 0.14 |
| ACATTTGTTGATACAACCATCAAATGGTAATTCCACCCCTACATTGATAATTATCACACCCAATTTAACTATAACGCTCTGATCATAGTCAGACCAACATTGCTACGACCCGTATTCGCACCGACAC | -3.06 ± 0.11 | -5.71 ± 0.097 |
| ACATTTGTTGATACAACCATAAAATGATAATTACACCCATAAATTGATAATTATCACACCCATCCCGGTCGCGGTAAGAGGATCATAGTCAGACCAACATTGCTACGACCCGTATTCGCACCGACAC | 2.36 ± 0.21 | -0.648 ± 0.11 |
| ACATTTGTTGATACAACCATAAAATGATAATTACACCCATAAATTGATAATTATCACACCCATACCGGTCGCGGTAAGAGGATCATAGTCAGACCAACATTGCTACGACCCGTATTCGCACCGACAC | 2.44 ± 0.13 | -0.58 ± 0.031 |
| ACATTTGTGGATACAACCCTAAAATGATAATTACACCCATAAATTCATAATTATCACACCCAATTTAACTATAACGCTCTGATCATAGTCAGACCAACATTGCTACGACCCGTATTCGCACCGACAC | -2.97 ± 0.11 | -5.07 ± 0.49 |
| ACATTTGTTGATACAACCATAAAATGATAATTAATAACACCCATAAATTGATAATTATCAACAAACGCCCGGTCGCGGTACTCTGATCATAGTCAGACCAACATTGCTACGACCCGTATTCGCACCG | 0.892 ± 0.16 | -2.52 ± 0.17 |
| ACATTTGTTGATACAACCATAAAATGATAATTAATAATTATTTATAATCAGCAACTTACACCCATAAATTGATAATTATCAACAAACGCCCGGTCGCGGTACTCTGATCATAGTCAGACCAACATTG | -1.91 ± 0.28 | -4.47 ± 1 |
| ACATTTGTTGATACAACCATAAAATGATAATTACACCCATAAATTGATAATTATCACACCCATAAATTGATATTGCCTCTGATCATAATTGTTATCCGCTCACAATTCCAGTCAGACGCACCGACAC | 0.885 ± 0.33 | -0.659 ± 0.41 |
| ACATTTGTAAATAAAACCATACGTTGATTTTACGAAACCATACGCTGAAATAATCACACCCATAAATTGATATTGCCTCTGATCATAGTCAGACCAACATTGCTACGACCCGTATTCGCACCGACAC | -4.7 ± 0.57 | -6.595 ± 0.05 |
| ACATTTGTTGATACAACCATAAAAGGATCATTACACCCATCAATTGATAATTATCCCACCCCATTTAACTATAACGCTCTGATCATAGTCAGACCAACATTGCTACGACCCGTATTCGCACCGACAC | -0.014 ± 0.4 | -3.29 ± 0.28 |
| ACATTTGTTGATACAACCATAAAATGATAATTAATAATTATTTATAATCCACCCATAAATTGATAATTATCACACCCATAAATTGATATTGCCTCTGATCATAGTCAGACCAACATTGCTACGACCC | 0.382 ± 0.22 | -3.09 ± 0.19 |
